We go through two molecules from publication PMC8219681, “Inhibition of MRN activity by a telomere protein motif” (Nature Communications, 2021).

For assay [1], the target named is T1, Rad50S (S. cerevisiae Rad50-K81I, FLAG-tagged at the C terminus) (S. cerevisiae, UniProt P12753 1-1312, K81I).
T1 construct: Rad50, Saccharomyces cerevisiae, K81I
T1 sequence (looked up): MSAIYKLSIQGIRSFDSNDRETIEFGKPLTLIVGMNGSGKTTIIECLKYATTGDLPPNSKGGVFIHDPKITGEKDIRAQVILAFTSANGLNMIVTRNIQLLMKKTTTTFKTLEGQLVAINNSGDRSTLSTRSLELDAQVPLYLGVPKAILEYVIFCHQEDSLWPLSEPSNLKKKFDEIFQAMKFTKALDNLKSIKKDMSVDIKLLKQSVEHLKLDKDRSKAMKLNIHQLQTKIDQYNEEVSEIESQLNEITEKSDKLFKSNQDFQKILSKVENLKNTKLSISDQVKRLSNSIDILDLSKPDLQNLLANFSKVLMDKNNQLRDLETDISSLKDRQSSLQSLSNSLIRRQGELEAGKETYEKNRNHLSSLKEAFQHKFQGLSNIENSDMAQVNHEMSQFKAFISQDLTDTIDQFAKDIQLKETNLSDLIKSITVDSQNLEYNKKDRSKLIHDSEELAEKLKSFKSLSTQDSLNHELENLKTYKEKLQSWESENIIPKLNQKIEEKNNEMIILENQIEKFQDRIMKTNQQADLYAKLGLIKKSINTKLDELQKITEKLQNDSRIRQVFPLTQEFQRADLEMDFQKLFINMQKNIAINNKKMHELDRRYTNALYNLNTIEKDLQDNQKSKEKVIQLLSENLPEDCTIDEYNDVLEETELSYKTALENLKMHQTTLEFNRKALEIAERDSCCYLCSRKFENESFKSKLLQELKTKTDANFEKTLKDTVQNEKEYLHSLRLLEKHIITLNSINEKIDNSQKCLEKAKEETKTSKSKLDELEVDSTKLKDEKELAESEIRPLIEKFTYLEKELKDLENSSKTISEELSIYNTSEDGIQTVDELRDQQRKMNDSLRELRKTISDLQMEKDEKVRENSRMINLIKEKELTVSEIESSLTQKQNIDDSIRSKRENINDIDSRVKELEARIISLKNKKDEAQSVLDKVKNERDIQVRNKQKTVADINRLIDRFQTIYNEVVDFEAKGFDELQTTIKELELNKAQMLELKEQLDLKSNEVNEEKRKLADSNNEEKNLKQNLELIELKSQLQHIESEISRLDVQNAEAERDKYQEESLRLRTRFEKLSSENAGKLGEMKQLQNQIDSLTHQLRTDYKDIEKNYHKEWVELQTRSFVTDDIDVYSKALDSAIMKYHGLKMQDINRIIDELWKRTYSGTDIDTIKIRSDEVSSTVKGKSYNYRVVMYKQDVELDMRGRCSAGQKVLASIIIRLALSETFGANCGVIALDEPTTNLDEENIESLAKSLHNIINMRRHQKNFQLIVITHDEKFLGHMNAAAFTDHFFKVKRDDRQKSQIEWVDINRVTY
Kind of assay: pull-down; MBP-Rif2 or MBP-Rif2-min immobilised on amylose resin, washed with 1 M NaCl buffer then 150 mM NaCl; 750 ng Rad50 or Rad50-K81I added for 1 h at 4 °C in wash buffer with 150 mM NaCl; Western blot with anti-Rad50. The note with it: both partners purified. Background: A western blot detects proteins with antibodies after separation by electrophoresis.

Assay [2] concerns the target T2, Rad50 (S. cerevisiae, FLAG-tagged at the C terminus) (S. cerevisiae, UniProt P12753 1-1312).
T2 construct: Rad50, Saccharomyces cerevisiae
T2 sequence (looked up): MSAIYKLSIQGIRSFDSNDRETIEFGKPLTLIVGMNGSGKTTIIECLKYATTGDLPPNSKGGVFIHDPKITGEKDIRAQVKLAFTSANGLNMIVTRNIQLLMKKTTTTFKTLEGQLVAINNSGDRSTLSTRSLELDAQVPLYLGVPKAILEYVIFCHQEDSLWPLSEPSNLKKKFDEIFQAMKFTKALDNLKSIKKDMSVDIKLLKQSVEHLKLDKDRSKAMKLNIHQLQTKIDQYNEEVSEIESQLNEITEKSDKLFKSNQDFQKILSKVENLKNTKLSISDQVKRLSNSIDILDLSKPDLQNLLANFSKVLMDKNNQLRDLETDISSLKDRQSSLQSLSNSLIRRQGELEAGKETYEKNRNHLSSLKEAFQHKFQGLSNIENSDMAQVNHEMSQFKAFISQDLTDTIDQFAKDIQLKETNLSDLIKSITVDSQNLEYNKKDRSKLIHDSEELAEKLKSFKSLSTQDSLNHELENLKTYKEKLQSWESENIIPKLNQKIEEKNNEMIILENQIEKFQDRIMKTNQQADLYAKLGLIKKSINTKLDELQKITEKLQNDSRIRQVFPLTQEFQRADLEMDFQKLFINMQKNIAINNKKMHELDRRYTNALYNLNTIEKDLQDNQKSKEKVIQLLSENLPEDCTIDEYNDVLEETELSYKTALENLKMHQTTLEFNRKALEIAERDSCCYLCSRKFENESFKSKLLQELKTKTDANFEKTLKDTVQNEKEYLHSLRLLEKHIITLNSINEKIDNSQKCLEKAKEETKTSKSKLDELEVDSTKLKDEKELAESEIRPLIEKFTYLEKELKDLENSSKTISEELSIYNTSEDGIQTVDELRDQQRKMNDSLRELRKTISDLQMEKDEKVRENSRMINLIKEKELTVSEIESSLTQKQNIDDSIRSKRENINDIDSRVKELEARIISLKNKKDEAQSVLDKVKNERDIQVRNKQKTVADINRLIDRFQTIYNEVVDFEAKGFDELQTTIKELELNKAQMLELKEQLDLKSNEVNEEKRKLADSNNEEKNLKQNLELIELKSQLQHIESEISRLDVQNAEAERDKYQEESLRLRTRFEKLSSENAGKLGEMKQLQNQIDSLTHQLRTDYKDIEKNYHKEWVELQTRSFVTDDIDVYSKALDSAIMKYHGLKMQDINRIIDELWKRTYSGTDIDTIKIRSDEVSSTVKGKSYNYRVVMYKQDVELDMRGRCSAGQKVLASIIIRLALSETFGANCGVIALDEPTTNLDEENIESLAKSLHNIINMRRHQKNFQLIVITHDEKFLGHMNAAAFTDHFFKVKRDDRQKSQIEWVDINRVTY
Kind of assay: pull-down; MBP-Rif2 or MBP-Rif2-min (~5 ug, from Sf9 lysate) immobilised on amylose resin and washed; 1 ug Mre11, 500 ng Rad50 or 1 ug Xrs2 added for 1 h in 50 mM Tris-HCl pH 7.5, 200 mM NaCl, 0.2% NP40, 2 mM EDTA; eluted with 20 mM maltose; Western blot. The note with it: both partners purified.

B1: MBP-Rif2 (S. cerevisiae Rif2, wild type) (natural protein, UniProt Q06208 1-395, looked up)
chain: MEHVDSDFAPIRRSKKVVDSDKIVKAISDDLEQKNFTVLRKLNLVPIKKSVSSPKVCKPSPVKERVDHVFYQKFKSMALQELGTNYLSISYVPSLSKFLSKNLRSMKNCIVFFDKVEHIHQYAGIDRAVSETLSLVDINVVIIEMNDYLMKEGIQSSKSKECIESMGQASYSGQLDFEASEKPSNHTSDLMMMVMRKINNDESIDHIVYFKFEQLDKLSTSTIIEPSKLTEFINVLSVLEKSNNIAFKVLIYSNNVSISSLLSTSLKKKLNTKYTVFEMPILTCAQEQEYLKKMIKFTFDSGSKLLQSYNSLVTCQLNNKESNLAIFFEFLKVFPHPFTYLFNAYTEIIVQSRTFDELLDKIRNRLTIKNYPHSAYNFKKNQRLPLKLTRKVHDR
notes: Rif2, Saccharomyces cerevisiae, full length, expressed from the vector pFB-MBP-Rif2-his; MBP was cleaved with PreScission protease only after elution from the resin; N-terminal place of MBP is read from the construct's name MBP-Rif2-his; also called ScRif2; not shown: MBP, N-terminal, kept
Turning to B1, the binding result in assay [1] and in assay [2] was “binds” in each case.

B2: MBP-Rif2-min (S. cerevisiae Rif2 F8E P10N) (natural protein, UniProt Q06208 1-395, looked up)
chain: MEHVDSDEANIRRSKKVVDSDKIVKAISDDLEQKNFTVLRKLNLVPIKKSVSSPKVCKPSPVKERVDHVFYQKFKSMALQELGTNYLSISYVPSLSKFLSKNLRSMKNCIVFFDKVEHIHQYAGIDRAVSETLSLVDINVVIIEMNDYLMKEGIQSSKSKECIESMGQASYSGQLDFEASEKPSNHTSDLMMMVMRKINNDESIDHIVYFKFEQLDKLSTSTIIEPSKLTEFINVLSVLEKSNNIAFKVLIYSNNVSISSLLSTSLKKKLNTKYTVFEMPILTCAQEQEYLKKMIKFTFDSGSKLLQSYNSLVTCQLNNKESNLAIFFEFLKVFPHPFTYLFNAYTEIIVQSRTFDELLDKIRNRLTIKNYPHSAYNFKKNQRLPLKLTRKVHDR
notes: Rif2, Saccharomyces cerevisiae, full length, F8E P10N, expressed from the vector pFB-MBP-Rif2-min-his; MBP was cleaved with PreScission protease only after elution from the resin; N-terminal place of MBP is read from the construct's name; also called mutant Rif2; not shown: MBP, N-terminal, kept
Regarding B2, the binding result in assay [1] and in assay [2] was “binds” each time.
